From PMC11355449, “The Discovery and Characterization of a Potent DPP-IV Inhibitory Peptide from Oysters for the Treatment of Type 2 Diabetes Based on Computational and Experimental Studies” (Marine Drugs, 2024)
Read-outs that look alike come from different tables or passages of the source. No end group written: not given here.

Key:
[1] = molecular target: T1, DPP-IV (Homo sapiens, UniProt P27487); conditions: read-out: IC50, DPP-IV inhibition, cited from earlier work
T1 construct: purchased Cayman Chemical 700210
T1 sequence (P27487 whole entry): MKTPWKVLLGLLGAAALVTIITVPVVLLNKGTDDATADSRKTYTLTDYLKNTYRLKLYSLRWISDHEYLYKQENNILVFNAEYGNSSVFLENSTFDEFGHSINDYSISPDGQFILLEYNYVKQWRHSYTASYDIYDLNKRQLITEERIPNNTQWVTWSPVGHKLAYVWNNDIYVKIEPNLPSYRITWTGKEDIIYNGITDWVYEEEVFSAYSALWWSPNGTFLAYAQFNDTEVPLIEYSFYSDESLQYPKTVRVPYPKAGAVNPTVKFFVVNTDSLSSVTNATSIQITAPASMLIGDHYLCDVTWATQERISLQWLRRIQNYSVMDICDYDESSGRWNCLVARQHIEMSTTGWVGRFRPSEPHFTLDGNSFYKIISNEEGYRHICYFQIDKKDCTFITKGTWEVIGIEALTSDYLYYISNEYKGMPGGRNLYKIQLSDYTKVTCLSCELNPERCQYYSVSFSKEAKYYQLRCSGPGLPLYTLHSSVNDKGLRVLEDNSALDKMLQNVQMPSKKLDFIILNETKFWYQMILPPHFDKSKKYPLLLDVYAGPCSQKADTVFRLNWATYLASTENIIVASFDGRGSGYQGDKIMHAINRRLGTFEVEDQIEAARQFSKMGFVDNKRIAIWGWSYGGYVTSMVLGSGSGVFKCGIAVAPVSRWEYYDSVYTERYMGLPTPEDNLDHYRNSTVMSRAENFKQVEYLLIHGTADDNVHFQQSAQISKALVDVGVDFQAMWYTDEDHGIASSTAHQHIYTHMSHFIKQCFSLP

[2] = molecular target: T1, DPP-IV; test: DPP-IV inhibitory activity in vitro (Cayman DPP (IV) inhibitor screening assay kit); assay type: biochemical; conditions: substrate Gly-Pro-AMC, 37 °C, 30 min, fluorescence 355/460 nm; dose–response range from 0.52 to 3.65 μM; drc package in R; read-out: IC50, DPP-IV inhibition
Procedure: Based on the results of the virtual screening, the optimal oyster peptide (key peptide sequences with potent DPP-IV inhibition) was selected and synthesized by Wuxi Maimertop Biotechnology Co., Ltd. (Wuxi, China). Then, the synthesized peptide was subjected to the DPP-IV inhibition activity verification. The DPP-IV inhibitory activity was determined following the instructions of commercial kits: a DPP (IV) inhibitor screening assay kit (700210 Cayman chemicals, USA). Briefly, 30 µL of assay buffer, 10 µL of DPP-IV enzyme, and 10 µL of peptide solution were added to a 96-well plate. Then, 50 µL of substrate (Gly-Pro-AMC, Sigma-Aldrich, Saint Louis, MO, USA) was added to start the reaction. After incubation at 37 °C for 30 min, the absorbance of the reaction mixture was detected under excitation and emission wavelengths of 355 nm and 460 nm, respectively. The DPP-IV inhibitory activity was calculated using the following formula:(1) DPP-IV Inhibition (%)=A− B/A×100% where A was the average fluorescence of 100% initial activity (blank) and B was the fluorescence of the sample.
The 50% inhibitory concentration (IC50) of DPP-IV enzyme activity was calculated using the drc package (https://cran.r-project.org/web/packages/drc/ accessed on 20 July 2024) in R 4.1.2.

[3] = food-derived peptides from silver carp proteins
[4] = food-derived peptides from Sorghum bicolor
[5] = food-derived peptides from sheep

In the case of “APGPAG [food-derived peptide from silver carp proteins]”, the IC50 [1, 3] is listed as 229 µM.

For “LPIIDI [food-derived peptide from silver carp proteins]”, the IC50 [1, 3] is listed as 105 µM.

With LRGFGNPPT the IC50 [2] was 1.56 µM.

In the case of “LSICGEESFGTGSDHIR [food-derived peptide from Sorghum bicolor]”, the IC50 [1, 4] is given as 73.5 µM.

In the case of “MQEHFTCCR [food-derived peptide from sheep]”, the IC50 [1, 5] is listed as 215 µM.

In the case of “QLRDIVDK [food-derived peptide from Sorghum bicolor]”, the IC50 [1, 4] is listed as 8.55 µM.

In the case of “RLYLHENK [food-derived peptide from sheep]”, the IC50 [1, 5] is given as 166 µM.

For “SLGESLLQEDVEAHK [food-derived peptide from Sorghum bicolor]”, the IC50 [1, 4] is listed as 82.5 µM.
